Read-outs that look alike come from different tables or passages of the source.
Columns and labels:
[1] = healthy volunteers; 10, 20, 30 units aerosol
Excerpt: Day-1: 5 puffs of 2 units each (total 10 units)
Day-2: 5 puffs of 4 units each (total 20 units)
Day-1: 5 puffs of 6 units each (total 30 units)

[2] = Description: The vials were then charged with a non-CFC tetrafluoroethane, (134a) propellant with the aid of a Pamasol 2008 semi-automatic gas filling equipment.
The aerodynamic particle size was determined by 8-stage USP Anderson Cascade Impactor-Mark-II (trade mark). The Multistage Cascade Impactor was cleaned with methanol and air-dried at 30° C. Glass fibre filters were placed on the collection plates. Seals were aligned properly and the actuator was attached to the mouthpiece and assembled onto the USP induction port and jet stages. A vacuum pump was connected and air flow rate is set to 28.3 liter/min. The vial was primed by shaking for 10 seconds and actuating twice to waste. […] […] The filters were carefully removed and placed in scintillation vials and sonicated for 15 minutes.

[3] = stage 3, U400, 4 units/actuation
[4] = stage 4, U400, 4 units/actuation
[5] = stage 5, U400, 4 units/actuation
[6] = stage 6, U400, 4 units/actuation
[7] = stage 7, U400, 4 units/actuation
[8] = stage 8, U400, 4 units/actuation

With insulin the “absorption of insulin through lungs and oropharynx regions” value [1] was “significant absorption”, the “size of most particles” value ([2]; cascade impactor, most particles) was “smaller than 6 microns” and the “particle size (conclusion)” value ([2]; cascade impactor, overall) was “about 3 microns”. For the same substance, the “droplet size, generally” value ([2]; cascade impactor, indicates deep lung deposition) was “smaller than 4 microns”, the “mg (insulin deposited)” value ([2]; stage 3, 2 units/actuation) was 0.77 mg and the “units (insulin deposited)” value ([2]; stage 3, 2 units/actuation) was 10.1 units. The “mg (insulin deposited)” value [2, 3] was 0.77 mg, the “units (insulin deposited)” value [2, 3] was 20.1 units and the “mg (insulin deposited)” value ([2]; stage 4, 2 units/actuation) was 0.78 mg. The “units (insulin deposited)” value ([2]; stage 4, 2 units/actuation) was 10.1 units, the “mg (insulin deposited)” value [2, 4] was 0.78 mg and the “units (insulin deposited)” value [2, 4] was 20.1 units. For the same substance, the “mg (insulin deposited)” value ([2]; stage 5, 2 units/actuation) was 0.81 mg, the “units (insulin deposited)” value ([2]; stage 5, 2 units/actuation) was 10.0 units and the “mg (insulin deposited)” value [2, 5] was 0.81 mg. For the same substance, the “units (insulin deposited)” value [2, 5] was 20.0 units, the “mg (insulin deposited)” value ([2]; stage 6, 2 units/actuation) was 0.80 mg and the “units (insulin deposited)” value ([2]; stage 6, 2 units/actuation) was 10.3 units. For the same substance, the “mg (insulin deposited)” value [2, 6] was 0.80 mg, the “units (insulin deposited)” value [2, 6] was 20.3 units and the “mg (insulin deposited)” value ([2]; stage 7, 2 units/actuation) was 0.80 mg. The “units (insulin deposited)” value ([2]; stage 7, 2 units/actuation) was 10.1 units, the “mg (insulin deposited)” value [2, 7] was 0.80 mg and the “units (insulin deposited)” value [2, 7] was 20.1 units. For the same substance, the “mg (insulin deposited)” value ([2]; stage 8, 2 units/actuation) was 0.79 mg, the “units (insulin deposited)” value ([2]; stage 8, 2 units/actuation) was 10.1 units and the “mg (insulin deposited)” value [2, 8] was 0.79 mg. The “units (insulin deposited)” value [2, 8] was 20.1 units and the insulin deposition ([2]; stages 0-2) was “no insulin deposition”.

Reference: patent publication US6294153A, “Aerosol pharmaceutical formulation for pulmonary and nasal delivery” (Generex Pharmaceuticals, Inc., priority 1999, dated 2001)
